Measured values from patent US20220017615A1 (SHANGHAI PHARMAEXPLORER, published 2022).

Columns and labels:
[1] = molecular target: T1, His-tagged CD47 recombinant protein, CD47-His (human, UniProt Q08722 19-141, limits assumed); experiment: BLI (Octet Red 96), antibody on AHC sensor, CD47-His 100 nM
T1 construct: it is not restated for CD47-His; also called human CD47-His protein; antigen CD47-His; not shown: His tag

[2] = molecular target: T2, biotin-labeled CD47 extracellular domain protein (CD47-ECD) (UniProt Q08722 19-139, limits assumed, biotin-labeled (sites not given)); experiment: blocking ELISA, biotin-CD47-ECD on coated SIRPα-hFc; Ab 40 nM
T2 construct: extracellular domain; also called CD47 protein

[3] = molecular target: T1, His-tagged CD47 recombinant protein, …; experiment: ELISA on coated CD47-His; Ab 0.533 nM
Description: (§1) The plate was sealed with plastic film and incubated at 4° C. overnight. The plate was washed twice with plate washing solution [PBS+0.01% (v/v) Tween20] the next day, and blocking solution [PBS+0.01% (v/v) Tween20 +1% (w/w) BSA] was added to block it at room temperature for 2 hours. […] After incubation at 37° C. for 2 hours, the plates were washed three times with plate washing solution [PBS+0.01% (v/v) Tween 20]. HRP (horseradish peroxidase) labeled secondary antibody (purchased from Sigma) was added, incubated at 37° C. for 2 hours, and then washed three times with plate washing solution [PBS+0.01% (v/v) Tween 20]. 1000 of TMB substrate was added to each well. After incubated at room temperature for 30 minutes, the plate was added with 100 μl of stop solution (1.0N HCl) to each well.

[4] = molecular target: T2, biotin-labeled CD47 extracellular …; experiment: blocking ELISA, biotin-CD47-ECD on coated SIRPα-hFc; Ab 0.32 nM
Description: (§2) The plate was sealed with plastic film and incubated at 4° C. overnight. The plate was washed twice with plate washing solution [PBS+0.01% (v/v) Tween20] on the next day, and blocking solution [PBS+0.01% (v/v) Tween20 +1% (w/w) BSA] was added to block it at room temperature for 2 hours. […] After incubation at 37° C. for 2 hours, the plate was washed three times with the plate washing solution [PBS+0.01% (v/v) Tween 20]. HRP (horseradish peroxidase) labeled avidin diluent (purchased from Sigma) was added as 100 microliters per well, and after the plate was incubated for 2 hours at 37° C., it was washed 3 times with washing solution [PBS+0.01% (v/v) Tween 20]. 100 μl of TMB substrate was added to each well. After incubated at room temperature for 30 minutes, the plate was added with 100 μl of stop solution (1.0N HCl) to each well.

[5] = molecular target: T3, human CD47, full length, on transfected cells (human, UniProt Q08722 19-323); experiment: FACS CHOK1-hCD47; Ab 1.6 nM
T3 construct: whole, on cells; also called CHOK1-hCD47
Description: (§3) The CHOK1-hCD47 stable cell lines and CHOK1-cCD47 stable cell lines were expanded to 90% confluence in a T-75 cell culture flask, the medium was exhausted, washed twice with HBSS buffer (Hanks balanced salt solution) (purchased from Invitrogen), and then treated and collected with enzyme-free cell dissociation solution (Versene solution: purchased from Life technology). The cells were washed twice with HBSS buffer. After counted, the cells were diluted with HBSS to 2×10⁶ cells per ml, added with 1% goat serum blocking solution, wherein the percentage was the mass percantage, incubated on ice for 30 minutes, and then washed twice with HBSS by centrifugation. […] The plate was washed 3 times with FACS buffer by centrifugation, added with 100 μl fixative solution [4% (v/v) Paraformaldehyde] per well to suspend the cells. 10 minutes later, it was washed twice with FACS buffer by centrifugation. The cells were suspended with 100 microliters of FACS buffer, FACS (FACS Calibur, purchased from BD) was used for detection and the results were analyzed.

[6] = molecular target: T1, His-tagged CD47 recombinant protein, …; experiment: ELISA on coated CD47-His; Ab 2.667 nM
Description: as §1

[7] = molecular target: T3, human CD47, full length, on transfected …; experiment: FACS CHOK1-hCD47; Ab 200 nM
Description: as §3

[8] = molecular target: T2, biotin-labeled CD47 extracellular …; experiment: blocking ELISA, biotin-CD47-ECD on coated SIRPα-hFc; Ab 0.0128 nM
Description: as §2

[9] = molecular target: T1, His-tagged CD47 recombinant protein, …; experiment: ELISA on coated CD47-His; Ab 0 nM (background)
Description: as §1

[10] = molecular target: T4, cynomolgus CD47, on CHOK1-cCD47 stable cell line (cynomolgus); experiment: FACS CHOK1-cCD47; Ab 0.0128 nM
T4 construct: whole, on cells; check before use; also called CHOK1/cynoCD47; monkey-derived CD47
Description: as §3

[11] = molecular target: T4, cynomolgus CD47, on CHOK1-cCD47 stable …; experiment: FACS CHOK1-cCD47; Ab 40 nM
Description: as §3

[12] = molecular target: T3, human CD47, full length, on transfected …; experiment: FACS CHOK1-hCD47; Ab 0.0128 nM
Description: as §3

[13] = molecular target: T3, human CD47, full length, on transfected …; experiment: FACS CHOK1-hCD47; Ab 0.064 nM
Description: as §3

[14] = molecular target: T2, biotin-labeled CD47 extracellular …; experiment: blocking ELISA, biotin-CD47-ECD on coated SIRPα-hFc; Ab 0 nM
Description: as §2

[15] = molecular target: T2, biotin-labeled CD47 extracellular …; experiment: blocking ELISA, biotin-CD47-ECD on coated SIRPα-hFc; Ab 200 nM
Description: as §2

[16] = molecular target: T4, cynomolgus CD47, on CHOK1-cCD47 stable …; experiment: FACS CHOK1-cCD47; Ab 0.32 nM
Description: as §3

[17] = molecular target: T1, His-tagged CD47 recombinant protein, …; experiment: ELISA on coated CD47-His; Ab 0.004 nM
Description: as §1

[18] = molecular target: T2, biotin-labeled CD47 extracellular …; experiment: blocking ELISA, biotin-CD47-ECD on coated SIRPα-hFc; Ab 8 nM
Description: as §2

[19] = molecular target: T4, cynomolgus CD47, on CHOK1-cCD47 stable …; experiment: FACS CHOK1-cCD47; Ab 0.064 nM
Description: as §3

[20] = molecular target: T4, cynomolgus CD47, on CHOK1-cCD47 stable …; experiment: FACS CHOK1-cCD47; Ab 1.6 nM
Description: as §3

[21] = molecular target: T3, human CD47, full length, on transfected …; experiment: FACS CHOK1-hCD47; Ab 0.32 nM
Description: as §3

[22] = molecular target: T2, biotin-labeled CD47 extracellular …; experiment: blocking ELISA, biotin-CD47-ECD on coated SIRPα-hFc; Ab 0.064 nM
Description: as §2

[23] = molecular target: T4, cynomolgus CD47, on CHOK1-cCD47 stable …; experiment: FACS CHOK1-cCD47; Ab 200 nM
Description: as §3

[24] = molecular target: T1, His-tagged CD47 recombinant protein, …; experiment: ELISA on coated CD47-His; Ab 0.021 nM
Description: as §1

[25] = molecular target: T4, cynomolgus CD47, on CHOK1-cCD47 stable …; experiment: FACS CHOK1-cCD47; Ab 0 nM (background)
Description: as §3

[26] = molecular target: T1, His-tagged CD47 recombinant protein, …; experiment: ELISA on coated CD47-His; Ab 66.667 nM
Description: as §1

[27] = molecular target: T3, human CD47, full length, on transfected …; experiment: FACS CHOK1-hCD47; Ab 8 nM
Description: as §3

[28] = molecular target: T4, cynomolgus CD47, on CHOK1-cCD47 stable …; experiment: FACS CHOK1-cCD47; Ab 8 nM
Description: as §3

[29] = molecular target: T3, human CD47, full length, on transfected …; experiment: FACS CHOK1-hCD47; Ab 40 nM
Description: as §3

[30] = molecular target: T1, His-tagged CD47 recombinant protein, …; experiment: ELISA on coated CD47-His; Ab 13.333 nM
Description: as §1

[31] = molecular target: T1, His-tagged CD47 recombinant protein, …; experiment: ELISA on coated CD47-His; Ab 0.107 nM
Description: as §1

[32] = molecular target: T2, biotin-labeled CD47 extracellular …; experiment: blocking ELISA, biotin-CD47-ECD on coated SIRPα-hFc; Ab 1.6 nM
Description: as §2

[33] = molecular target: T3, human CD47, full length, on transfected …; experiment: FACS CHOK1-hCD47; Ab 0 nM (background)
Description: as §3

B1: c51E2F11 (antibody, V domains shown)
VH: EVQLQQSGAELVKPGASVKLSCTASGFNIKDHYIHWMNQRTEQGLEWIGRIDPDDGETRYAPKFRGKATLTADTSSNTAYLQFSSLTSEDTAVYHCTRATTITRDWYFDVWGTGTTVTVSS
VL: DIVMTQSQKFMSTSVGDRVSITCKASQNVRTSVAWYQQKPGQSPKALIYLASNRHTGIPDRFTGSGSGTDFTLTIRNVQSEDLADYFCLQHWDYPLTFGAGTKLELK
- Kd [1]: 2.41 nM
- koff [1]: 0.00103 s⁻¹
- kon [1]: 428000 M⁻¹ s⁻¹

B2: c54G8G6 (antibody, V domains shown)
VH: QVQLQQPGADLVKPGASVKMSCKASGYTFTSYWIIWVKQRPGQGLEWIGDINPGRGSPNYNEKFKRKATLTVDTSSSTAYMQLSSLTSEDSAVYYCVRGGLRRFDHWGQGTLVTVSA
VL: ENVLTQSPAIMSASPGEKVTMTCRASSSVSSSYLHWYQQKSGASPKLWIYSTSTLASGVPARFSGSGSGTSYSLTISSVEAEDAATYYCQQYSGYPYTFGGGTKLEIK
- Kd [1]: 1.39 nM
- koff [1]: 0.000478 s⁻¹
- kon [1]: 343000 M⁻¹ s⁻¹

B3: c25E3B5 (antibody, V domains shown)
VH: QVQLQQPGTALVRPGSSVKLSCKASGYTFTSYWMHWVRQRPIKGLEWIGNIDPSDSETHYNQRFKDKVTLTVDKSSNTAYMQLSSLTSEDSAVYYCARWKYHGIGAMDYWGQGTSVTVSS
VL: DVQITQSPSYLAASPGETVTISCRTNRNISKFLAWYQEKPGKTNKLLIYSGSTLHSGIPSRFSGSGSGTDFTLTISRLEPEDFAMYYCQQHNEYPWSFGGGTKLEIK
- Kd [1]: 3.7 nM
- koff [1]: 0.000867 s⁻¹
- kon [1]: 234000 M⁻¹ s⁻¹

B4: c20H4G5 (antibody, V domains shown)
VH: QVQLQQPGAELVRPGSSVRLSCVTSGYTFTSHWMHWVKQGPIKGLEWIGNIDPSDSETHYNQKFKDKATLTVDKSSSTAYMQLSRLTSDDSAVYYCARWRHLGIGAMDYWGQGTSVIVSS
VL: DVQITQSPSYLAASPGETITINCRASKNISKFLAWYQAKPGKSNNLLIYSGSTLQSGIPSRFSGSGSGTDFTLTISRLEPEDFAMYYCQQHNEYPWTFGGGTKLEIK
- Kd [1]: 0.695 nM
- koff [1]: 0.000202 s⁻¹
- kon [1]: 290000 M⁻¹ s⁻¹

B5: c132D1E5 (antibody, V domains shown)
VH: QVQLQQPGAELVRPGSSVKLSCKASGYTFTNNWMHWVKQRPLQGLEWIGNIDPSDSETHYNQKFKDKATLTVDKSSTTAYIQLSSLTSEDSAVYYCARWRGGGRGAMDYWGQGTSVTVSS
VL: DVQITQSPSYLAASPGETITINCRTSKNISKFLAWYQEKPGKTNKLLIYSGSTLQSGIPSRFSGSGSGTDFTLTISNLEPEDFAMYYCQQHNEYPWTFGRGTKLEIK
- Kd [1]: 0.982 nM
- koff [1]: 0.000362 s⁻¹
- kon [1]: 369000 M⁻¹ s⁻¹

B6: 4D10B11 (antibody, V domains shown)
VH: QVQLQQSGPELVKPGASVKISCKASGYSFTSYYIHWVKQRPGQGLEWIGWIYPGSGNTKYNEKFKGKATLTADTSSSTADMQLSSLTSEDSAVYYCARRGDWYFDVWGTGTTVTVSS
VL: DIVMSQSPSSLVVSVGEKVTMNCKSSQSLLFSGNQKSSLAWYQQKPGQSPKLLIYWASTRESGVPDRFTGSGSGTDFTLIISTVKAEDLAVYSCQQYYSYPLTFGAGTKLELK
notes: Murine hybridoma antibody purified on protein G
- OD450 nm of CD47 bound to SIRPα [2]: 0.06
- OD450 nm [3]: 2.94
- OD450 nm of CD47 bound to SIRPα [4]: 0.77
- mean fluorescence intensity [5]: 4850
- OD450 nm [6]: 3.03
- mean fluorescence intensity [7]: 10500
- OD450 nm of CD47 bound to SIRPα [8]: 2.76
- OD450 nm [9]: 0.05
- mean fluorescence intensity [10]: 218
- mean fluorescence intensity [11]: 13900
- mean fluorescence intensity [12]: 113
- mean fluorescence intensity [13]: 480
- OD450 nm of CD47 bound to SIRPα [14]: 2.84
- OD450 nm of CD47 bound to SIRPα [15]: 0.06
- mean fluorescence intensity [16]: 2540
- OD450 nm [17]: 0.18
- OD450 nm of CD47 bound to SIRPα [18]: 0.06
- mean fluorescence intensity [19]: 667
- mean fluorescence intensity [20]: 7190
- mean fluorescence intensity [21]: 1710
- OD450 nm of CD47 bound to SIRPα [22]: 2.45
- mean fluorescence intensity [23]: 8870
- OD450 nm [24]: 0.69
- mean fluorescence intensity [25]: 75.5
- OD450 nm [26]: 2.91
- mean fluorescence intensity [27]: 8450
- mean fluorescence intensity [28]: 12100
- mean fluorescence intensity [29]: 8900
- OD450 nm [30]: 2.91
- OD450 nm [31]: 2.13
- OD450 nm of CD47 bound to SIRPα [32]: 0.15
- mean fluorescence intensity [33]: 21.9

B7: c4D10B11 (antibody, V domains shown)
VH: QVQLQQSGPELVKPGASVKISCKASGYSFTSYYIHWVKQRPGQGLEWIGWIYPGSGNTKYNEKFKGKATLTADTSSSTADMQLSSLTSEDSAVYYCARRGDWYFDVWGTGTTVTVSS
VL: DIVMSQSPSSLVVSVGEKVTMNCKSSQSLLFSGNQKSSLAWYQQKPGQSPKLLIYWASTRESGVPDRFTGSGSGTDFTLIISTVKAEDLAVYSCQQYYSYPLTFGAGTKLELK
- Kd [1]: 1.06 nM
- koff [1]: 0.000284 s⁻¹
- kon [1]: 268000 M⁻¹ s⁻¹
